± gives the uncertainty stated by the source.
Experiment: self-splicing fitness, log relative to wild type (ln ratio); higher = more splicing; Tetrahymena group I intron in knt gene, E. coli kanamycin selection, DiMSum; sequences stand for … in CUCUCU…GGAGGGAAAAGUUAUCAGGCAUGCACCUGGUAGCUAGUCUUUAAACCAAUAGAUUGCAUCGGUUUAAAAGGCAAGACCGUCAAAUUGCGGGAAAGGGGUCAACAGCCGUUCAGUACCAAGUCUCAGGGGAAACUUUGAGAUGGCCUUGCAAAGGGUAUGGUAAUAAGCUGACGGACAUGGUCCUAACCACGCAGCCAAGUCCUAAGUCAACAGAUCUUCUGUUGAUAUGGAUGCAGUUCACAGACUAAAUGUCGGUCGGGGAAGAUGUAUUCUUCUCAUAAGAUAUAGUCGGACCUCUCCUUAAUGGGAGCUAGCGGAUGAAGUGAUGCAACACUGGAGCCGCUGGGAACUAAUUUGUAUGCGAAAGUAUAUUGAUUAGUUUUGGAGUACUCGUGGUCG
Method in brief: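 DiMSum derived fitness as the error-weighted combination of fold changes across replicates, kanamycin versus no kanamycin, normalised to wild type. E. coli BL21(DE3) held the library, which randomised all eight P1ex-region intron nucleotides within the knt kanamycin-resistance gene on pET-22b(+). Six replicate transformations grew overnight at 37°C or 30°C on LB agar with or without 25 μg/mL kanamycin, also containing 100 μg/mL carbenicillin, 50 μM IPTG and 0.2% rhamnose, and pooled colonies were amplicon-sequenced on an Illumina HiSeq 2500.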

Row | Sequence | self-splicing fitness (ln) (30 °C) | self-splicing fitness (ln) (37 °C)
1 | CUCGAGCAAUAUUACGUUAA | -3.68 ± 0.2 | -2.53 ± 0.17
2 | CUCGAGCAAUAUUACGUUUA | -3.22 ± 0.41 | -3.05 ± 0.4
3 | CUCGAGCAAUAUUACGUUUG | -3.74 ± 0.24 | -2.11 ± 0.16
4 | CUCUAGCAAUAUUACGACGA | -2.13 ± 0.22 | -0.928 ± 0.16
5 | CUCUAGCAAUAUUACGAGAG | -2.9 ± 0.18 | -1.69 ± 0.2
6 | CUCUAGCAAUAUUACGAGGG | -3.28 ± 0.22 | -1.45 ± 0.18
7 | CUCUAGCAAUAUUACGAGUA |  | -1.18 ± 0.21
8 | CUCUAGCAAUAUUACGAGUU | -3.44 ± 0.38 | -3.55 ± 0.42
9 | CUCUAGCAAUAUUACGAUAG | -3.88 ± 0.2 | -3.58 ± 0.28
10 | CUCUAGCAAUAUUACGAUCA | -2.28 ± 0.23 | -2.58 ± 0.33
11 | CUCUAGCAAUAUUACGAUGU | -3.53 ± 0.22 | -2.92 ± 0.25
12 | CUCUAGCAAUAUUACGCAAU |  | -3.09 ± 0.38
13 | CUCUAGCAAUAUUACGCAGC | -3.2 ± 0.25 | 
14 | CUCUAGCAAUAUUACGCCAU |  | -3.56 ± 0.33
15 | CUCUAGCAAUAUUACGCCCG |  | -0.832 ± 0.42
16 | CUCUAGCAAUAUUACGCGAG | -3.63 ± 0.25 | -3.28 ± 0.37
17 | CUCUAGCAAUAUUACGCGAU | -3.29 ± 0.17 | -2.88 ± 0.19
18 | CUCUAGCAAUAUUACGCUCA | -1.32 ± 0.3 | -3.25 ± 0.37
19 | CUCUAGCAAUAUUACGCUCU | -3.22 ± 0.19 | -3.77 ± 0.31
20 | CUCUAGCAAUAUUACGCUUA | -4 ± 0.37 | -3.06 ± 0.27
21 | CUCUAGCAAUAUUACGCUUG | -3.57 ± 0.24 | -3.45 ± 0.42
22 | CUCUAGCAAUAUUACGGCAC | -2.61 ± 0.26 | 
23 | CUCUAGCAAUAUUACGGCUC | -3.83 ± 0.22 | -2.09 ± 0.21
24 | CUCUAGCAAUAUUACGGGAA | -2.54 ± 0.14 | -1.11 ± 0.11
25 | CUCUAGCAAUAUUACGGGAG | -3.78 ± 0.19 | -2.26 ± 0.19

Row | Sequence | self-splicing fitness (ln) (30 °C) | self-splicing fitness (ln) (37 °C)
26 | CUCUAGCAAUAUUACGGUGA | -3.56 ± 0.21 | -1.8 ± 0.2
27 | CUCUAGCAAUAUUACGGUUC | -2.69 ± 0.17 | -2.46 ± 0.29
28 | CUCUAGCAAUAUUACGUAGC | -3.51 ± 0.37 | -3.53 ± 0.46
29 | CUCUAGCAAUAUUACGUUUC | -5.02 ± 0.45 | -2.62 ± 0.19
30 | CUGAAGCAAUAUUACGAAGA | -2.5 ± 0.36 | -0.888 ± 0.25
31 | CUGAAGCAAUAUUACGAAGU | -3.58 ± 0.2 | -2.77 ± 0.41
32 | CUGAAGCAAUAUUACGACAC | -2.05 ± 0.32 | 
33 | CUGAAGCAAUAUUACGACGG | -0.289 ± 0.15 | -0.879 ± 0.14
34 | CUGAAGCAAUAUUACGAUCA | -1.68 ± 0.13 | -1.53 ± 0.13
35 | CUGAAGCAAUAUUACGCCGU | -2.92 ± 0.31 | -2.4 ± 0.3
36 | CUGAAGCAAUAUUACGCGCG | 0.18 ± 0.092 | -0.0678 ± 0.075
37 | CUGAAGCAAUAUUACGCUAA |  | -2.45 ± 0.32
38 | CUGAAGCAAUAUUACGGACG | 0.0263 ± 0.084 | 0.166 ± 0.1
39 | CUGAAGCAAUAUUACGGAGC |  | -0.931 ± 0.49
40 | CUGAAGCAAUAUUACGGAGU | -3.2 ± 0.37 | -2.33 ± 0.26
41 | CUGAAGCAAUAUUACGGCCG | -0.134 ± 0.2 | 0.451 ± 0.27
42 | CUGAAGCAAUAUUACGGUUC | -3.05 ± 0.18 | -3.5 ± 0.3
43 | CUGAAGCAAUAUUACGUCAG | -4.14 ± 0.2 | -1.46 ± 0.14
44 | CUGAAGCAAUAUUACGUCGA | -2.2 ± 0.17 | -1.57 ± 0.23
45 | CUGAAGCAAUAUUACGUUGC | -4.09 ± 0.26 | -0.264 ± 0.2
46 | CUGCAGCAAUAUUACGCAAA | -2.18 ± 0.2 | -3.55 ± 0.24
47 | CUGCAGCAAUAUUACGCAGC | -2.88 ± 0.32 | 
48 | CUGCAGCAAUAUUACGCAUG | -2.5 ± 0.12 | -1.8 ± 0.14
49 | CUGCAGCAAUAUUACGCCAC | -2.82 ± 0.26 | -2.82 ± 0.44
50 | CUGCAGCAAUAUUACGCCCU | -3.15 ± 0.37 | -1.71 ± 0.33

Source: the supplement of paper PMC7877785
